Here are results for two variants from paper PMC8102066 (2021).

B1: HA-SNAP-mGluR2 [modified: SNAP tag labelled with BG-LD555 (BG-LD655 in two-colour SiMPull); SNAP tag labelled with BG-LD555 (BG-LD655 in two-colour SiMPull)] [rat] / itself (parent complex)
chain: EGPAKKVLTLEGDLVLGGLFPVHQKGGPAEECGPVNEHRGIQRLEAMLFALDRINRDPHLLPGVRLGAHILDSCSKDTHALEQALDFVRASLSRGADGSRHICPDGSYATHSDAPTAVTGVIGGSYSDVSIQVANLLRLFQIPQISYASTSAKLSDKSRYDYFARTVPPDFFQAKAMAEILRFFNWTYVSTVASEGDYGETGIEAFELEARARNICVATSEKVGRAMSRAAFEGVVRALLQKPSARVAVLFTRSEDARELLAATQRLNASFTWVASDGWGALESVVAGSERAAEGAITIELASYPISDFASYFQSLDPWNNSRNPWFREFWEERFHCSFRQRDCAAHSLRAVPFEQESKIMFVVNAVYAMAHALHNMHRALCPNTTHLCDAMRPVNGRRLYKDFVLNVKFDAPFRPADTDDEVRFDRFGDGIGRYNIFTYLRAGSGRYRYQKVGYWAEGLTLDTSFIPWASPSAGPLPASRCSEPCLQNEVKSVQPGEVCCWLCIPCQPYEYRLDEFTCADCGLGYWPNASLTGCFELPQEYIRWGDAWAVGPVTIACLGALATLFVLGVFVRHNATPVVKASGRELCYILLGGVFLCYCMTFVFIAKPSTAVCTLRRLGLGTAFSVCYSALLTKTNRIARIFGGAREGAQRPRFISPASQVAICLALISGQLLIVAAWLVVEAPGTGKETAPERREVVTLRCNHRDASMLGSLAYNVLLIALCTLYAFKTRKCPENFNEAKFIGFTMYTTCIIWLAFLPIFYVTSSDYRVQTTTMCVSVSLSGSVVLGCLFAPKLHIILFQPQKNVVSHRAPTSRFGSAAPRASANLGQGSGSQFVPTVCNGREVVDSTTSSL
B2: HA-SNAP-mGluR3-C127A [modified: SNAP tag labelled with BG-LD555 (BG-LD655 in two-colour SiMPull); SNAP tag labelled with BG-LD555 (BG-LD655 in two-colour SiMPull)] [rat] / itself (parent complex)
chain: LGDHNFMRREIKIEGDLVLGGLFPINEKGTGTEECGRINEDRGIQRLEAMLFAIDEINKDNYLLPGVKLGVHILDTCSRDTYALEQSLEFVRASLTKVDEAEYMAPDGSYAIQENIPLLIAGVIGGSYSSVSIQVANLLRLFQIPQISYASTSAKLSDKSRYDYFARTVPPDFYQAKAMAEILRFFNWTYVSTVASEGDYGETGIEAFEQEARLRNICIATAEKVGRSNIRKSYDSVIRELLQKPNARVVVLFMRSDDSRELIAAANRVNASFTWVASDGWGAQESIVKGSEHVAYGAITLELASHPVRQFDRYFQSLNPYNNHRNPWFRDFWEQKFQCSLQNKRNHRQVCDKHLAIDSSNYEQESKIMFVVNAVYAMAHALHKMQRTLCPNTTKLCDAMKILDGKKLYKEYLLKINFTAPFNPNKGADSIVKFDTFGDGMGRYNVFNLQQTGGKYSYLKVGHWAETLSLDVDSIHWSRNSVPTSQCSDPCAPNEMKNMQPGDVCCWICIPCEPYEYLVDEFTCMDCGPGQWPTADLSGCYNLPEDYIKWEDAWAIGPVTIACLGFLCTCIVITVFIKHNNTPLVKASGRELCYILLFGVSLSYCMTFFFIAKPSPVICALRRLGLGTSFAICYSALLTKTNCIARIFDGVKNGAQRPKFISPSSQVFICLGLILVQIVMVSVWLILETPGTRRYTLPEKRETVILKCNVKDSSMLISLTYDVVLVILCTVYAFKTRKCPENFNEAKFIGFTMYTTCIIWLAFLPIFYVTSSDYRVQTTTMCISVSLSGFVVLGCLFAPKVHIVLFQPQKNVVTHRLHLNRFSVSGTATTYSQSSASTYVPTVCNGREVLDSTTSSL

In one assay the parent is B1. As to the kind of experiment: SiMPull; shaded bar, data repeated from Figure 1F; read off a plot.
In the case of chain 1 C103A, the screen value was roughly 91%.

Variants of B2 are the subject of the next assay. Put plainly: SiMPull; SNAP-tagged constructs labeled with LD555; 6 movies; read off a plot.
Consider chain 1 S664A, chain 1 F668A, chain 1 G672A, for which the screen value was roughly 74%.
